Measured values reported in publication PMC12593533, “Unravelling tandem repeat-mediated mutagenesis drive rapid diversification of KPC enzymes: emergence of blaKPC-263 and enhanced resistance to ceftazidime-avibactam” (eBioMedicine, 2025).

Experiments:
Assay in all cases: purified protein
[1] = test system: CC(C)(O/N=C(\C(=O)N[C@@H]1C(=O)N2C(C(=O)[O-])=C(C[n+]3ccccc3)CS[C@H]12)c1csc(N)n1)C(=O)O
[2] = test system: C[C@@H](O)[C@H]1C(=O)N2C(C(=O)O)=C(SCCN=CN)C[C@H]12
[3] = test system: C[C@@H](O)[C@H]1C(=O)N2C(C(=O)O)=C(S[C@@H]3CN[C@H](C(=O)N(C)C)C3)[C@H](C)[C@H]12

KPC-2 (Klebsiella pneumoniae)
Km [1]: 580 µM
kcat [1]: 42.9 s⁻¹
kcat/Km [1]: 74000 M⁻¹ s⁻¹
Km [2]: 380 µM
kcat [2]: 199 s⁻¹
kcat/Km [2]: 523000 M⁻¹ s⁻¹
Km [3]: 420 µM
kcat [3]: 112 s⁻¹
kcat/Km [3]: 268000 M⁻¹ s⁻¹
